Source: patent US11994512B2, “Single-cell genomic methods to generate ex vivo cell systems that recapitulate in vivo biology with improved fidelity” (Massachusetts Institute of Technology, priority 2018, dated 2024)

Test system: intracellular proteome of ENR+CD and ENR organoids
Experiment: LC-MS/MS TMT proteomics of ENR+CD versus ENR organoids
Format: cell-based, C57BL/6 mice
Conditions: for Average logFC / M1-1 Log2 Median Normalized / M1-2 Log2 Median Normalized / M2-1 Log2 Median Normalized / M2-2 Log2 Median Normalized: protein abundance, ENR+CD versus ENR organoids; for Average logFC: aggregate of the four sample pairs; for M1-1 Log2 Median Normalized: replicate M1-1; for M1-1 Log2 Median Normalized / M1-2 Log2 Median Normalized / M2-1 Log2 Median Normalized / M2-2 Log2 Median Normalized: log2 ratio; for M1-2 Log2 Median Normalized: replicate M1-2; for M2-1 Log2 Median Normalized: replicate M2-1; for M2-2 Log2 Median Normalized: replicate M2-2; for change: up = enriched in ENR+CD, down = enriched in ENR, FDR<0.05 and log fold change cut-off

B1: Q3UQ28 (protein, UniProt Q3UQ28 1-1475, looked up)
chain: MAVRPTRRCLLALLLCFAWWAMAVVASKQGAGCPSRCLCFRTTVRCMHLLLEAVPAVAPQTSILDLRFNRIREIQPGAFRRLRSLNTLLLNNNQIKKIPNGAFEDLENLKYLYLYKNEIQSIDRQAFKGLASLEQLYLHFNQIETLDPESFQHLPKLERLFLHNNRITHLVPGTFSQLESMKRLRLDSNALHCDCEILWLADLLKTYAQSGNAQAAATCEYPRRIQGRSVATITPEELNCERPRITSEPQDADVTSGNTVYFTCRAEGNPKPEIIWLRNNNELSMKTDSRLNLLDDGTLMIQNTQEADEGVYQCMAKNVAGEAKTQEVTLRYLGSPARPTFVIQPQNTEVLVGESVTLECSATGHPLPQITWTRGDRTPLPIDPRVNITPSGGLYIQNVAQSDSGEYTCFASNSVDSIHATAFIIVQALPQFTVTPQSRVVIEGQTVDFQCAAKGHPQPVIAWTKGGSQLSVDRRHLVLSSGTLRISGVALHDQGQYECQAVNIIGSQKVVAHLTVQPRVTPVFASIPSDMTVEVGTNVQLPCSSQGEPEPAITWNKDGVQVTESGKFHISPEGFLTINDVGTADAGRYECVARNTIGYASVSMVLSVNVPDVSRNGDPYVATSIVEAIATVDRAINSTRTHLFDSRPRSPNDLLALFRYPRDPYTVGQARAGEIFERTLQLIQEHVQHGLMVDLNGTSYHYNDLVSPQYLSLIANLSGCTAHRRVNNCSDMCFHQKYRTHDGTCNNLQHPMWGASLTAFERLLKAVYENGFNTPRGINSQRQYNGHVLPMPRLVSTTLIGTEVITPDEQFTHMLMQWGQFLDHDLDSTVVALSQARFSDGQHCSSVCSNDPPCFSVMIPPNDPRVRSGARCMFFVRSSPVCGSGMTSLLMNSVYPREQINQLTSYIDASNVYGSTDHEARSIRDLASHRGLLRQGIVQRSGKPLLPFATGPPTECMRDENESPIPCFLAGDHRANEQLGLTSMHTLWFREHNRIAAELLKLNPHWDGDTVYHETRKIVGAEIQHITYRHWLPKILGEVGMKMLGEYRGYDPSVNAGIFNAFATAAFRFGHTLINPLLYRLDENFEPIPQGHVPLHKAFFSPFRIVNEGGIDPLLRGLFGVAGKMRIPSQLLNTELTERLFSMAHTVALDLAAINIQRGRDHGIPPYHDYRVYCNLSAAYTFEDLKNEIKSPVIREKLQRLYGSTLNIDLFPALMVEDLVPGSRLGPTLMCLLSTQFRRLRDGDRLWYENPGVFSPAQLTQLKQTSLARILCDNSDNITRVQQDVFRVAEFPHGYSSCEDIPRVDLRVWQDCCEDCRTRGQFNAFSYHFRGRRSLEFSYEDDKPTKRARWRKALSVKHGKHLSNATSATHEHLEGPATNDLKEFVLEMQKIITDLRKQINSLESRLSTTECVDDSGESHGGNTKWKKDPCTVCECKNGQITCFVEACQPAACPQPVKVEGACCPVCLKNTAEEKP
modifications: full-length
  Average logFC: 1.294
  M1-1 Log2 Median Normalized: 1.157
  M1-2 Log2 Median Normalized: 1.486
  M2-1 Log2 Median Normalized: 1.3875
  M2-2 Log2 Median Normalized: 1.146
  change: up

B2: Q3UR50 (protein, UniProt Q3UR50 1-1248, looked up)
chain: MPGLYCPTSWTPLPLTDSCVRAYAKGPCLSLRARLTYHNPQPQPVEGVFVYPLAEAEVVSGFEAEAAGRRVSFQLHSRRRSQAACCRALGPGLGTSTPRRCAQGHLVLNLAQARSTLVLPTGLVAAAGTMTVTLCSSRELPSRPDGVMHVALPTVFTPLAQPNLPGSPRSPGLCDDSPTSCFGVGSPEEERPTWEQPTATPDVFSGPARCPAPYTFSFEMLVTGPCLLAGLESPSHALRADALPHASSAATIRVTLAEGHQCDRALEILLHPSEPHQPHLMLETGSLSSAEYEAQVRARHDFQRLQQRDSGGERQVWFLQRRFHKDILLNPVLVLNFCPDLSSKPGHLNAATRELLFLLDGSGAGHKDAIVLAVKSLPAQTLVNLAIFGTLVQPLFPESRPCSDDTVQLICESIETLQTVNGPPDMLAVLDWALGQPQHRAYPRQMFLITAASPTAATTHQALEFMRWHRGAARCFSFALAPACRQLLHDLSVLSRGQAYFLRPGERLQPKLVQALRKALEPALSDISVDWFVPDAVEALLTPREIPALYPGDQLLGYCSLFRVDGFRSHALGGQEPGWQSLAGSVFPSPEEVLSATSPGTEPTHTTEPLGTGTVSAELSSPWAVGDSEQSMEALTDPVMDPGPNPSSDTAIWRRIFQSSYIREQYVLTHCSASPEPGPGSTCSSESPGSQGPGSPSGSRPLDPPSQQGCRSLAWVEPAGSRSCPLPVPPPSPFKVGAMSAEVLGRRQRAALAGRSLSSPSGRANPVPGRARHPSLDAIPDGLGPEPGQQLGQGLDDSGNLLSPAPLDWDMLMEPSFLFKPVPSSAESAPPAECLPPQAPRCHVVIRALCGEQPMCWEVGVGLEELWGPGDGSQPESLPMREAAWDQALHRLTAASVVQDNEQLALRGRAETRAEQGRVRRSWLRAIQTSKVSSAPSCFTCPVAVDATTREVLPGALQVWSSDPAELSGMSASQDQLAAAPLSTAVHSKGHQGGCSAGAWDLDLNDNSKSALGEPISPTGDHHGLPHQPPASSRLSLGRHRRLCSSNKGQTHENSNDGSNHDYLPLVRLQEAPGSFRLDEPFCAAVCIPQERLCRASPFAAHRASLSPTSASSPWAFLSPGIGQGDSATASCSQSPSSGSEGPGQVDSGRGSDTEASEGMERQDSSDLRGRTWATAVALAWLEHRCAAAFGEWELTASKADCWLRAQHLPDGLDLTALKAAARGLFLLLRHWDQNLQLHLLCYSPSNV
modifications: full-length
  Average logFC: 1.46
  M1-1 Log2 Median Normalized: 1.678
  M1-2 Log2 Median Normalized: 1.171
  M2-1 Log2 Median Normalized: 1.6125
  M2-2 Log2 Median Normalized: 1.377
  change: up

B3: Q3UW68 (protein, UniProt Q3UW68 1-665, looked up)
chain: MAHDAETSVVKFKNQDFRTLRDHCLSRGQLFIDDTFPAAASSIGEKLLRGKHLSKLEWKRPTSKDLPFYPPHFILEGASRFDIHQGIAGDCWFLAALGSLTQNPQCLQKILMDQSYSHQYAGIFQFRFWQCGQWVEVVIDDQLPVIGDNFLFVHPRGGNKEFWPCLMEKAYAKLLGSYSQLHYGYLPDALVDLTGGVVTIINLHSSPFDLLTTVKTAIQAGSMVACATENGLTEEAKVMENGLVSQHAYTVTGAEKIQYQGRWEDIIRLWNPWGKTEWKGRWKDGSKEWRETHDPRKSQLYENKEDGEFWMSCQDFQENFSCLFICNQIPITMDHGVTPNESWRQMRFTNQVISRNRAGGHGRDMQYVFSVQEHTAGNNVVVAFTIMPQSLNTEEERFPLQFQVFKVPQFQNVQGRLPPAFFSPFRSAAQGTKYVSKCNFTKSFHLNPGTYVVVTTANGKEVEFLLRIFLKMPDKHRDPSSNFNLRALKESLPENGSRNSISYTYMDQGLDIDATQLQSLLNQEFLTGPPGDTFSLDQCQSIMALMDLKVNGRLDQEEFARLRSRLIHCQHIFQSIQRRPGVLLSSDLWKVIENTDFLVGIFISSELLSLMALRYSDSSGRVSFPTLVCFLIRLETMAKAFRNLSKDGKGIYLTETEWMNLVMYS
modifications: full-length
  Average logFC: −1.164
  M1-1 Log2 Median Normalized: −1.402
  M1-2 Log2 Median Normalized: −1.492
  M2-1 Log2 Median Normalized: −1.0855
  M2-2 Log2 Median Normalized: −0.676
  change: down

B4: Q3UYK3 (protein, UniProt Q3UYK3 1-1264, looked up)
chain: MWVNPEEVLLANALWITERANPYFILQRRKGHGGDGGGGGGLAGLLVGTLDVVLDSSARVAPYRILYQTPDSLVYWTIACGGSRKEVTEHWEWLEQNLLQTLSIFENENDVTTFVRGKIQGIIAEYNKINDVKEDEDTEKFKEAIVKFHRLFGMPEEEKLVNYYSCSYWKGRVPRQGWMYLSINHLCFSSFLMGREAKLVIRWVDITQLEKNATLLLPDMIKVSTRSSEHFFSVFLNINETFKLMEQLANIAMRQLLDNEGFEQDRSLPKLKKKSPKKVSALKRDLDARAKSERYRALFRLPKDEKLDGHTDCTLWTPFNKMHILGQMFVSTNYICFTSKEENLCSLIIPLREVTIVEKADSCSVLPSPLSISTRNRMTFLFANLKDRDFLVQRISDFLQQTTSRIYSDKEFSGSCNSSDDEVYSRPSSLVSSSPQRSTSSDADGERPFNLNGNSVPTATQTLMTMYRRRSPEEFNPKLAKEFLKEQAWKIHFAEYGQGICMYRTEKTRELVLKGIPESMRGELWLLLSGAINEKATHPGYYEGLVEKSMGKYNLATEEIERDLHRSLPEHPAFQNEMGIAALRRVLTAYAFRNPNIGYCQAMNIVTSVLLLYAKEEEAFWLLVALCERMLPDYYNTRVVGALVDQGVFEELARDYVPQLYDCMQDLGVISTISLSWFLTLFLSVMPFESAVVVVDCFFYEGIKVIFQLALAVLDANVDKLLNCKDDGEAMTVLGRYLDSVTNKDSTLPPIPHLHSLLSDDVGPYPAVDIFRLIGTSYEKFGTIRADLIEQMRFKQRLKVIQTLEDTTKRNVVRTIVTETSFTIDELEELYALFKAEHLTSCYWGGSSNALDRHDPSLPYLEQYRIDFEQFKGMFVLLFPWACGTHSDVLASRLFQLLDENGDSLINFREFVSGLSAACHGDLTEKLKLLYKMHVLPEPSCDQDEPDSAFEATQYFFEDITPECTHVVGLDSRGKQSADDGFVTVSLKQDRGKRANSQENRNYLKLWTAENKSKSKTAKDLPKLNQGQFIELCKTMYNMFSEDPNEQELYHATAAVTSLLLEIGEVGKFFITQPAKEDAVPGPPCGQAIPGMLFPKKGSSQSYVVESTEPLTASLAVDSEEHSLGGQMEDIKLEDSSPRDNGACSSMLISDDDTKDDSSMSSYSVLSAGSHEEDKLHCEDIGEDTVLVRSSQGRATLPRSSSLDRDWAITFEQFLASLLTEPALVRYFDKPVCMMARVTSAKNIRMMGKPLTSASDYEISALSG
modifications: full-length
  Average logFC: −1.25
  M1-1 Log2 Median Normalized: −0.639
  M1-2 Log2 Median Normalized: −1.148
  M2-1 Log2 Median Normalized: −1.5035
  M2-2 Log2 Median Normalized: −1.709
  change: down

B5: Q3V1V3 (protein, UniProt Q3V1V3 1-845, looked up)
chain: MSSKQEIMDDQRFRRVSKDPRFWEMPEKERKVKIDKRFRAMFHDKKFKLNYAVDKRGRPISHSTTEDLKRFYDLSDSDSDLSDEESKILSQKKAKQKKKQTKKEAKSIEKPIEEKKKETKKTDQKDSINKHDLNNSERVQKMKNSQKPQKIDSEISPKKDNEEFLQNKKKKRGTTDLSVEALPKGKLRTKDSSTSEMVKSSTMSSSKAKREKQSVVPVIMAKDNDGKMPDEDALEEDSDSASELGSDEESEDEIISDGKTSADEDESEEEDEEEEEDSEEEEEEEEEDESDSGPDLARGKGNVETSSEDEDDLADLFPEEPGFEHAWRELDKDAPRADEITRRLAVCNMDWDRLKAKDLLALFNSFKPKGGVVFSVKIYPSEFGKERMKEEQVQGPVELLSIPEDAPEKDWASREKLRDYQFKRLKYYYAVAECDSPETASKIYEDCDGLEFESSCSFIDLRFIPDDITFDDEPKDVALEVDLTAYKPKYFTSAAMGTSTVEITWDETDHERITTLNRKFKKDELLDMDFQAYLASSSEDEEEVEEAPEGEEGVNIGEDGKTKKSQKDDEEQIAKYRQLLQVIQEKEKKGKENDMEMEIKWVPGLKESAEEMVKNKLEGKDKLTPWEQFLEKKKEKKRLKKKQKALAEEDSEDELPSDVDFNDPYFAEEVKKIGIKKKSMKSAKDSASSEEETDLEKQKAEMALLVMDEEEDSKKHFNYDKIVEHQNLSKKKKKQLMKKKELVEDDFEVNVSDARFQAMYTSHLFNLDPSDPNFKKTKAMEKILEEKARHRERKEELLIQAVERAQQDTGKPTQKQPMDPALSMLIKSVKNKTEQFQARKKQRVK
modifications: full-length
  Average logFC: −1.244
  M1-1 Log2 Median Normalized: −1.45
  M1-2 Log2 Median Normalized: −0.805
  M2-1 Log2 Median Normalized: −0.9155
  M2-2 Log2 Median Normalized: −1.805
  change: down
